Tested on: SARS-CoV-1, MERS-CoV and SARS-CoV-2 proteins in HEK293T cells
Design: species or system human

B1: M-Q9UI26 (protein, UniProt Q9UI26 1-975, looked up)
Importin-11: MDLNSASTVVLQVLTQATSQDTAVLKPAEEQLKQWETQPGFYSVLLNIFTNHTLDINVRWLAVLYFKHGIDRYWRRVAPHALSEEEKTTLRAGLITNFNEPINQIATQIAVLIAKVARLDCPRQWPELIPTLIESVKVQDDLRQHRALLTFYHVTKTLASKRLAADRKLFYDLASGIYNFACSLWNHHTDTFLQEVSSGNEAAILSSLERTLLSLKVLRKLTVNGFVEPHKNMEVMGFLHGIFERLKQFLECSRSIGTDNVCRDRLEKTIILFTKVLLDFLDQHPFSFTPLIQRSLEFSVSYVFTEVGEGVTFERFIVQCMNLIKMIVKNYAYKPSKNFEDSSPETLEAHKIKMAFFTYPTLTEICRRLVSHYFLLTEEELTMWEEDPEGFTVEETGGDSWKYSLRPCTEVLFIDIFHEYNQTLTPVLLEMMQTLQGPTNVEDMNALLIKDAVYNAVGLAAYELFDSVDFDQWFKNQLLPELQVIHNRYKPLRRRVIWLIGQWISVKFKSDLRPMLYEAICNLLQDQDLVVRIETATTLKLTVDDFEFRTDQFLPYLETMFTLLFQLLQQVTECDTKMHVLHVLSCVIERVNMQIRPYVGCLVQYLPLLWKQSEEHNMLRCAILTTLIHLVQGLGADSKNLYPFLLPVIQLSTDVSQPPHVYLLEDGLELWLVTLENSPCITPELLRIFQNMSPLLELSSENLRTCFKIINGYIFLSSTEFLQTYAVGLCQSFCELLKEITTEGQVQVLKVVENALKVNPILGPQMFQPILPYVFKGIIEGERYPVVMSTYLGVMGRVLLQNTSFFSSLLNEMAHKFNQEMDQLLGNMIEMWVDRMDNITQPERRKLSALALLSLLPSDNSVIQDKFCGIINISVEGLHDVMTEDPETGTYKDCMLMSHLEEPKVTEDEEPPTEQDKRKKMLALKDPVHTVSLQQFIYEKLKAQQEMLGEQGFQSLMETVDTEIVTQLQEFLQGF
modifications: interactor of M protein
**Q.** With B1 as the molecule, how does the MIST_MERS read?
**A.** The MIST_MERS was 0.9937.

**Q.** And the MIST_SARS1?
**A.** The MIST_SARS1 was 0.6822.

**Q.** And the MIST_SARS2?
**A.** Its MIST_SARS2 is 0.6494.

**Q.** What about the Saint_MERS of the same molecule?
**A.** Its Saint_MERS is 0.99.

**Q.** And the Saint_SARS1?
**A.** Its Saint_SARS1 is 1.

**Q.** And the Saint_SARS2?
**A.** Its Saint_SARS2 is 1.

B2: M-Q9UKV5 (protein, UniProt Q9UKV5 1-643, looked up)
E3 ubiquitin-protein ligase …: MPLLFLERFPWPSLRTYTGLSGLALLGTIISAYRALSQPEAGPGEPDQLTASLQPEPPAPARPSAGGPRARDVAQYLLSDSLFVWVLVNTACCVLMLVAKLIQCIVFGPLRVSERQHLKDKFWNFIFYKFIFIFGVLNVQTVEEVVMWCLWFAGLVFLHLMVQLCKDRFEYLSFSPTTPMSSHGRVLSLLVAMLLSCCGLAAVCSITGYTHGMHTLAFMAAESLLVTVRTAHVILRYVIHLWDLNHEGTWEGKGTYVYYTDFVMELTLLSLDLMHHIHMLLFGNIWLSMASLVIFMQLRYLFHEVQRRIRRHKNYLRVVGNMEARFAVATPEELAVNNDDCAICWDSMQAARKLPCGHLFHNSCLRSWLEQDTSCPTCRMSLNIADNNRVREEHQGENLDENLVPVAAAEGRPRLNQHNHFFHFDGSRIASWLPSFSVEVMHTTNILGITQASNSQLNAMAHQIQEMFPQVPYHLVLQDLQLTRSVEITTDNILEGRIQVPFPTQRSDSIRPALNSPVERPSSDQEEGETSAQTERVPLDLSPRLEETLDFGEVEVEPSEVEDFEARGSRFSKSADERQRMLVQRKDELLQQARKRFLNKSSEDDAASESFLPSEGASSDPVTLRRRMLAAAAERRLQKQQTS
**Q.** How did the MIST_MERS turn out when B2 was run?
**A.** The MIST_MERS was 0.2719.

**Q.** And the MIST_SARS1?
**A.** The MIST_SARS1 was 0.9871.

**Q.** What about the MIST_SARS2 of the same molecule?
**A.** Its MIST_SARS2 is 0.04352.

**Q.** And the Saint_MERS?
**A.** The Saint_MERS was 0.

**Q.** And the Saint_SARS1?
**A.** Its Saint_SARS1 is 1.

**Q.** And the Saint_SARS2?
**A.** Its Saint_SARS2 is 1.
